Assay results: patent US20260125469A1 (Hoffmann-La Roche, published 2026)
Where a chain is given by its changes, count along the chain named.

Columns and labels:
[1] = target: T1, Cynomolgus CD3ε stalk-Fc(knob)-Avi/CD3δ stalk-Fc(hole) (cynomolgus); experiment: SPR, monovalent IgG captured by anti-PG antibody, antigen as analyte, 25°C; bad fit quality per footnote
T1 construct: also called cynomolgus CD3ε/δ
Protocol: (§1) SPR experiments were performed as described in Example 3, with the monovalent IgG molecules prepared in Example 19.
(§2) To analyze the interaction to CD3, IgG molecules were captured for 240 s at 50 nM with a flow rate of 5 μl/min. Human and cynomolgus CD3F stalk-Fc(knob)-Avi/CD36-stalk-Fc(hole) were passed at a concentration of 0.061-250 nM with a flow rate of […] through the flow cells for 300 s. The dissociation was monitored for 800 s.

[2] = target: T2, Human CD3ε stalk-Fc(knob)-Avi/CD3δ stalk-Fc(hole) (human); experiment: as above
T2 construct: Heterodimer of CD3 delta and CD3 epsilon ectodomains fused to human Fc with knob-into-hole; also called human CD3ε/δ; CD3 antigen
Protocol: as §1, §2

[3] = target: T2, Human CD3ε stalk-Fc(knob)-Avi/CD3δ …; experiment: SPR on immobilized human CD3ε/δ after stress, relative to sample kept at -80°C pH 6
Protocol: All SPR experiments were performed on a Biacore T200 instrument (GE Healthcare) at 25° C. with HBS-P+ (10 mM HEPES, 150 mM NaCl pH 7.4, 0.05% Surfactant P20) as running and dilution buffer. Biotinylated human CD3ε/δ (see Example 3, SEQ ID NOs 41 and 42) as well as biotinylated anti-huIgG (Capture Select, Thermo Scientific, #7103262100) were immobilized on a Series S Sensor Chip SA (GE Healthcare, #29104992), resulting in surface densities of at least 1000 resonance units (RU). Anti-CD3 antibodies with a concentration of 2 μg/ml were injected for 30 s at a flow rate of 5 μl/min, and dissociation was monitored for 120 s. The surface was regenerated by injecting 10 mM glycine pH 1.5 for 60 s. Bulk refractive index differences were corrected by subtracting blank injections and by subtracting the response obtained from a blank control flow cell. For evaluation, the binding response 5 seconds after injection end was taken. To normalize the binding signal, the CD3 binding was divided by the anti-huIgG response (the signal (RU) obtained upon capture of the CD3 antibody on the immobilized anti-huIgG antibody). The relative binding activity was calculated by referencing each temperature stressed sample to the corresponding, non-stressed sample.
The experiment was performed as described in Example 4, using the monovalent IgG molecules prepared in Example 19.

[4] = target: T3, human CD19 on cells (Nalm-6, Z-138) (human, UniProt P15391 20-556); experiment: flow cytometry on Nalm-6 cells
T3 construct: whole, on cells; also called CD19-expressing cells; CD19+ target cells
T3 sequence (looked up): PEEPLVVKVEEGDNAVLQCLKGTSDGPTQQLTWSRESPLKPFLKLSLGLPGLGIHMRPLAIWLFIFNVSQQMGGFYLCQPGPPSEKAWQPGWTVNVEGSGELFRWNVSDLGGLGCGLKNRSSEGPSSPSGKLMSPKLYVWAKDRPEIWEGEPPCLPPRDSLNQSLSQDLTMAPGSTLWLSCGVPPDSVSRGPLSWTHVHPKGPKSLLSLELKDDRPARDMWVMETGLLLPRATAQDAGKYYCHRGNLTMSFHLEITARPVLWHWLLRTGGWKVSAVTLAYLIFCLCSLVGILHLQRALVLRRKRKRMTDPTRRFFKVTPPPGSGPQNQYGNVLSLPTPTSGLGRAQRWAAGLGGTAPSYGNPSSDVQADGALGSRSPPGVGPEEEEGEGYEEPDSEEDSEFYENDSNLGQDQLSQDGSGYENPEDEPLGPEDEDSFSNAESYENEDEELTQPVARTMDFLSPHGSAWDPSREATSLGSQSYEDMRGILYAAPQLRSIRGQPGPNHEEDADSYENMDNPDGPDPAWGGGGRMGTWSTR
Protocol: (§3) The binding of the CD19-TCB molecules prepared in Example 15 to human CD19- and CD3-expressing target cells was tested. Two CD19-expressing cell lines with different levels of CD19 expression were used. Nalm-6, an acute lymphoblastic leukemia (ALL) cell line with high CD 19 expression and Z-138 (Mantle cell lymphoma) with average expression levels. CD3-binding was assessed using immortalized T lymphocyte line (Jurkat cell line). Briefly, cells were harvested, counted, checked for viability and resuspended at 1×10⁶ cells/ml in FACS buffer (PBS+2% FCS+5 mM EDTA+0.25% sodium azide). […] Binding curves and the EC50 values related to binding were calculated using GraphPad Prism 7.

[5] = target: T4, human CD3 on cells (CD3ε) (human, UniProt P07766 23-207); experiment: flow cytometry on Jurkat cells
T4 construct: CD3 complex as it stands on Jurkat cells or primary T cells; also called CD3-expressing Jurkat cells; CD3-expressing T cells
T4 sequence (P07766 23-207 limits assumed): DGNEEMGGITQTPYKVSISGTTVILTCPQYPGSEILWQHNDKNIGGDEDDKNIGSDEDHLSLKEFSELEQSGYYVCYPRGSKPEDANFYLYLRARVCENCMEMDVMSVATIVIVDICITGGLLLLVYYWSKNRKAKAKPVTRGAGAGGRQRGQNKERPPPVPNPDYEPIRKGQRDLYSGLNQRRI
Protocol: as §3

[6] = target: T5, CD19 extracellular domain (ECD)-Fc fusion (human, UniProt P01857 104-328 = IgG part); experiment: SPR, TCB captured by anti-PG antibody, CD19 ECD-Fc as analyte, 25°C
T5 construct: Monovalent CD19 ECD on a knob-into-hole Fc; also called CD19 antigen; recombinant human CD19
Protocol: (§4) SPR experiments were performed, using the CD19-TCB molecules prepared in Example 15, on a Biacore T200 instrument at 25° C. with HBS-EP+ as running buffer (0.01 M HEPES pH 7.4, 0.15 M NaCl, 0.005% Surfactant P20 (GE Healthcare, #BR-1006-69)). Anti-PG antibody (see Example 3) was directly immobilized by amine coupling on a C1 chip (GE Healthcare). The different TCB molecules were captured at 25 nM. Three-fold dilution series (in HBS-EP from 0.14 to 100 nM) of the CD19 antigen (CD19 extracellular domain (ECD)-Fc fusion; see SEQ ID NOs 99 and 100) or the CD3 antigen (see Example 3, SEQ ID NOs 41 and 42) were passed over the ligand at 30 μl/min for 240 s to record the association phase. The dissociation phase was monitored for 1500 s (CD19 antigen) or 800 s (CD3 antigen)s and triggered by switching from the sample solution to HBS-EP+. The chip surface was regenerated after every cycle using two injections of 10 mM glycine pH 2.1 for 60 sec. Bulk refractive index differences were corrected for by subtracting the response obtained on the reference flow cell (without captured TCB). The affinity constants were derived from the kinetic rate constants by fitting to a 1:1 Langmuir binding using the Biaeval software (GE Healthcare). The measurement was performed with three independent dilution series.

[7] = target: T2, Human CD3ε stalk-Fc(knob)-Avi/CD3δ …; experiment: SPR, TCB captured by anti-PG antibody, human CD3ε/δ-Fc as analyte, 25°C
Protocol: as §4

[8] = target: T3, human CD19 on cells (Nalm-6, Z-138); experiment: cell-based or functional assay

B1: anti-CD3 antibody clone P004.042 in monovalent IgG format (antibody)
heavy: not shown
chain: DKTHTCPPCPAPEAAGGPSVFLFPPKPKDTLMISRTPEVTCVVVDVSHEDPEVKFNWYVDGVEVHNAKTKPREEQYNSTYRVVSVLTVLHQDWLNGKEYKCKVSNKALGAPIEKTISKAKGQPREPQVCTLPPSRDELTKNQVSLSCAVKGFYPSDIAVEWESNGQPENNYKTTPPVLDSDGSFFLVSKLTVDKSRWQQGNVFSCSVMHEALHNHYTQKSLSLSP
light: EVQLLESGGGLVQPGGSLRLSCAASGFQFDNYAMNWVRQAPGKGLEWVSRIRTKYNEYATYYADSVKGRFTISRDDSKNTLYLQMNSLRAEDTAVYYCVRASNFPQSYVSYFGYWGQGTLVTVSSASVAAPSVFIFPPSDEQLKSGTASVVCLLNNFYPREAKVQWKVDNALQSGNSQESVTEQDSKDSTYSLSSTLTLSKADYEKHKVYACEVTHQGLSSPVTKSFNRGEC
notes: also called monovalent IgG P004.042
Kd [1]: 0.439 nM | koff [1]: 0.00809 s⁻¹ | kon [1]: 1.85e+07 M⁻¹ s⁻¹ | t1/2 [1]: 1.43 min | Kd [2]: 1.36 nM | koff [2]: 0.00852 s⁻¹ | kon [2]: 6.28e+06 M⁻¹ s⁻¹ | t1/2 [2]: 1.36 min | binding activity [%] after 2 weeks at pH 6.0/40°C [3]: 101% | binding activity [%] after 2 weeks at pH 7.4/37°C [3]: 98%

B2: CD19-TCB, CD19(018) CD3orig (bispecific antibody, human IgG1, kappa, L234A L235A)
heavy 1: not shown
heavy 2: QVQLVQSGAEVKKPGASVKVSCKASGYTFTDYIMHWVRQAPGQGLEWMGYINPYNDGSKYTEKFQGRVTMTSDTSISTAYMELSRLRSDDTAVYYCARGTYYYGSALFDYWGQGTTVTVSSASTKGPSVFPLAPSSKSTSGGTAALGCLVEDYFPEPVTVSWNSGALTSGVHTFPAVLQSSGLYSLSSVVTVPSSSLGTQTYICNVNHKPSNTKVDEKVEPKSCDKTHTCPPCPAPEAAGGPSVFLFPPKPKDTLMISRTPEVTCVVVDVSHEDPEVKFNWYVDGVEVHNAKTKPREEQYNSTYRVVSVLTVLHQDWLNGKEYKCKVSNKALGAPIEKTISKAKGQPREPQVCTLPPSRDELTKNQVSLSCAVKGFYPSDIAVEWESNGQPENNYKTTPPVLDSDGSFFLVSKLTVDKSRWQQGNVFSCSVMHEALHNHYTQKSLSLSP
light 1: DIVMTQTPLSLSVTPGQPASISCKSSQSLENPNGNTYLNWYLQKPGQSPQLLIYRVSKRFSGVPDRFSGSGSGTDFTLKISRVEAEDVGVYYCLQLTHVPYTFGQGTKLEIKRTVAAPSVFIFPPSDRKLKSGTASVVCLLNNFYPREAKVQWKVDNALQSGNSQESVTEQDSKDSTYSLSSTLTLSKADYEKHKVYACEVTHQGLSSPVTKSFNRGEC
light 2: EVQLLESGGGLVQPGGSLRLSCAASGFTFSTYAMNWVRQAPGKGLEWVSRIRSKYNNYATYYADSVKGRFTISRDDSKNTLYLQMNSLRAEDTAVYYCVRHGNFGNSYVSWFAYWGQGTLVTVSSASVAAPSVFIFPPSDEQLKSGTASVVCLLNNFYPREAKVQWKVDNALQSGNSQESVTEQDSKDSTYSLSSTLTLSKADYEKHKVYACEVTHQGLSSPVTKSFNRGEC
notes: 2+1 IgG CrossFab, inverted; human IgG1 Fc, knob-into-hole, PGLALA
EC50 [4]: 1.5 nM | EC50 [5]: 115 nM | Kd [6]: 0.95 nM | koff [6]: 0.000316 s⁻¹ | kon [6]: 333000 M⁻¹ s⁻¹ | t1/2 [6]: 36.6 min | Kd [7]: 3.57 nM | koff [7]: 0.00333 s⁻¹ | kon [7]: 933000 M⁻¹ s⁻¹ | t1/2 [7]: 3.5 min | EC50 (pM) of tumor cell lysis, Nalm-6 target cells [8]: 0.3 pM | EC50 (pM) of tumor cell lysis, Z-138 target cells [8]: 5.4 pM

B3: CD19-TCB, CD19(2B11) CD3 variant P035.093 (bispecific antibody, human IgG1, kappa, L234A L235A)
heavy 1: not shown
heavy 2: B2 heavy 2 with S105P, A106Q
light 1: B2 light 1 with N31T, P32S, N33T, N35T, T97L, H98E, V99D
light 2: B2 light 2 with T31S, H101A, G102S, G105P, N106A, W111Y
notes: as for B2
EC50 [4]: 0.6 nM | EC50 [5]: 22.3 nM | Kd [6]: 0.32 nM | koff [6]: 0.000146 s⁻¹ | kon [6]: 458000 M⁻¹ s⁻¹ | t1/2 [6]: 79.1 min | Kd [7]: 0.38 nM | koff [7]: 0.00135 s⁻¹ | kon [7]: 3.56e+06 M⁻¹ s⁻¹ | t1/2 [7]: 8.6 min

B4: CD19-TCB, CD19(018) CD3 variant P035.093 (bispecific antibody, human IgG1, kappa, L234A L235A)
heavy 1: not shown
heavy 2: B2 heavy 2
light 1: B2 light 1
light 2: B2 light 2 with T31S, H101A, G102S, G105P, N106A, W111Y
notes: as for B2
EC50 [4]: 1.2 nM | EC50 [5]: 38 nM | Kd [6]: 1.27 nM | koff [6]: 0.000392 s⁻¹ | kon [6]: 310000 M⁻¹ s⁻¹ | t1/2 [6]: 29.5 min | Kd [7]: 0.37 nM | koff [7]: 0.00135 s⁻¹ | kon [7]: 3.68e+06 M⁻¹ s⁻¹ | t1/2 [7]: 8.6 min | EC50 (pM) of tumor cell lysis, Nalm-6 target cells [8]: 0.9 pM | EC50 (pM) of tumor cell lysis, Z-138 target cells [8]: 8.1 pM

B5: CD19-TCB, CD19(2B11) CD3orig (bispecific antibody, human IgG1, kappa, L234A L235A)
heavy 1: not shown
heavy 2: B2 heavy 2 with S105P, A106Q
light 1: B2 light 1 with N31T, P32S, N33T, N35T, T97L, H98E, V99D
light 2: B2 light 2
notes: as for B2
EC50 [4]: 0.7 nM | EC50 [5]: 203 nM | Kd [6]: 0.4 nM | koff [6]: 0.000176 s⁻¹ | kon [6]: 434000 M⁻¹ s⁻¹ | t1/2 [6]: 65.6 min | Kd [7]: 3.36 nM | koff [7]: 0.00378 s⁻¹ | kon [7]: 1.13e+06 M⁻¹ s⁻¹ | t1/2 [7]: 3.1 min | EC50 (pM) of tumor cell lysis, Nalm-6 target cells [8]: 0.3 pM | EC50 (pM) of tumor cell lysis, Z-138 target cells [8]: 4.8 pM
